First the molecules themselves.
B1: untagged p16INK4a [not stated] / GSTCDK4 [human] (parent complex)
chain 1: MEPAAGSSMEPSADWLATAAARGRVEEVRALLEAGALPNAPNSYGRRPIQVMMMGSARVAELLLLHGAEPNCADPATLTRPVHDAAREGFLDTLVVLHRAGARLDVRDAWGRLPVDLAEELGHRDVARYLRAAAGGTRGSNHARIDAAEGPSDIPD
chain 2: MATSRYEPVAEIGVGAYGTVYKARDPHSGHFVALKSVRVPNGGGGGGGLPISTVREVALLRRLEAFEHPNVVRLMDVCATSRTDREIKVTLVFEHVDQDLRTYLDKAPPPGLPAETIKDLMRQFLRGLDFLHANCIVHRDLKPENILVTSGGTVKLADFGLARIYSYQMALTPVVVTLWYRAPEVLLQSTYATPVDMWSVGCIFAEMFRRKPLFCGNSEADQLGKIFDLIGLPPEDDWPRDVSLPRGAFPPRGPRPVQSVVPEMEESGAQLLLEMLTFNPHKRISAFRALQHSYLHKDEGNPE

Data on one variant can be found in publication PMC5681435 (2017).

In this assay the parent is B1. The experiment in a line: HTRF displacement assay; CDK4 8 nM; value read at the highest [INK] point, about 500 nM; read off a plot. For orientation: TR-FRET usually uses a lanthanide donor and a delayed reading to cut background.
As to chain 1 D84N, the response was ~58 % Inhibition.
